Laboratory results published in the Immune Epitope Database (IEDB).

Columns and labels:
HLA-A*01:01 = assay: IEDB peptide-MHC binding, purified MHC/direct/fluorescence; filed as Kd, often an IC50 or EC50 that approximates it; ≥ and ≤ were set here for values at or beyond the usual limits of such assays
HLA-A*31:01 = assay: as above
HLA-B*07:02 = assay: as above
HLA-B*08:02 = assay: as above
HLA-B*15:01 [1] = assay: as above
HLA-B*27:05 = assay: as above
HLA-B*44:02 = assay: as above; conditions: source organism: Yellow fever virus strain Ghana/Asibi/1927
HLA-B*46:01 [2] = assay: as above
HLA-B*48:01 = assay: as above
HLA-B*57:01 [3] = assay: as above
HLA-C*15:02 = assay: as above
HLA-A*02:01 [4] = assay: as above; conditions: source organism: Entamoeba histolytica
HLA-A*03:01 [5] = assay: as above; conditions: source organism: Entamoeba histolytica
HLA-A*11:01 [6] = assay: as above; conditions: source organism: Entamoeba histolytica
HLA-A*26:01 [7] = assay: as above
HLA-A*26:02 = assay: as above
HLA-A*68:02 [8] = assay: as above; conditions: source organism: Entamoeba histolytica
HLA-B*08:01 [9] = assay: as above
HLA-B*15:17 = assay: as above; conditions: source organism: Entamoeba histolytica
HLA-B*18:01 [10] = assay: as above
HLA-B*40:01 = assay: as above; conditions: source organism: Entamoeba histolytica
HLA-B*58:01 = assay: as above
HLA-B*46:01 [11] = assay: IEDB peptide-MHC binding, purified MHC/competitive/fluorescence; filed as Kd, often an IC50 or EC50 that approximates it; ≥ and ≤ were set here for values at or beyond the usual limits of such assays
HLA-C*03:03 = assay: IEDB peptide-MHC binding, purified MHC/direct/fluorescence; filed as Kd, often an IC50 or EC50 that approximates it; ≥ and ≤ were set here for values at or beyond the usual limits of such assays
HLA-C*05:01 = assay: as above; conditions: source organism: Yersinia pestis Nepal516
HLA-C*07:02 = assay: as above
HLA-C*12:03 = assay: as above; conditions: source organism: Yersinia pestis Nepal516
HLA-A*02:01 [12] = assay: IEDB peptide-MHC binding, purified MHC/competitive/fluorescence; filed as Kd, often an IC50 or EC50 that approximates it; ≥ and ≤ were set here for values at or beyond the usual limits of such assays
HLA-B*15:01 [13] = assay: as above
HLA-B*35:01 = assay: as above; conditions: source organism: Yersinia pestis Nepal516
HLA-B*39:01 = assay: as above
HLA-B*51:01 = assay: as above
HLA-A*02:03 = assay: as above; conditions: source organism: Vibrio parahaemolyticus RIMD 2210633
HLA-A*02:12 = assay: as above; conditions: source organism: Vibrio parahaemolyticus RIMD 2210633
HLA-A*02:19 = assay: as above; conditions: source organism: Vibrio parahaemolyticus RIMD 2210633
HLA-A*03:01 [14] = assay: as above; conditions: source organism: Vibrio parahaemolyticus RIMD 2210633
HLA-A*26:01 [15] = assay: as above; conditions: source organism: Vibrio parahaemolyticus RIMD 2210633
HLA-A*29:02 = assay: as above; conditions: source organism: Vibrio parahaemolyticus RIMD 2210633
HLA-A*68:02 [16] = assay: as above; conditions: source organism: Vibrio parahaemolyticus RIMD 2210633
HLA-B*18:01 [17] = assay: as above; conditions: source organism: Vibrio parahaemolyticus RIMD 2210633
HLA-B*27:03 = assay: as above; conditions: source organism: Vibrio parahaemolyticus RIMD 2210633
HLA-B*57:01 [18] = assay: as above; conditions: source organism: Vibrio parahaemolyticus RIMD 2210633
HLA-B*08:01 [19] = assay: as above; conditions: source organism: Salmonella enterica subsp. enterica serovar Typhi
HLA-A*11:01 [20] = assay: as above
HLA-C*14:02 = assay: IEDB peptide-MHC binding, purified MHC/direct/fluorescence; filed as Kd, often an IC50 or EC50 that approximates it; ≥ and ≤ were set here for values at or beyond the usual limits of such assays; conditions: source organism: Burkholderia mallei SAVP1
[21] = source organism: Yellow fever virus strain Ghana/Asibi/1927
[22] = source organism: Yellow fever virus
[23] = source organism: Entamoeba histolytica
[24] = source organism: Yersinia pestis Nepal516
[25] = source organism: Vibrio parahaemolyticus RIMD 2210633
[26] = source organism: Salmonella enterica subsp. enterica serovar Typhi
[27] = source organism: Chelativorans sp. BNC1

With AIHPFALLL the Kd (HLA-A*01:01; [21]) was no less than 20 µM, the Kd (HLA-A*31:01; [21]) was no less than 20 µM and the Kd (HLA-B*07:02; [21]) was no less than 20 µM. It also gave a Kd (HLA-B*08:02; [22]) of no less than 20 µM, a Kd (HLA-B*15:01 [1]; [21]) of no less than 20 µM and a Kd (HLA-B*27:05; [21]) of no less than 20 µM. The Kd (HLA-B*44:02) was no less than 20 µM, the Kd (HLA-B*46:01 [2]; [21]) was no less than 20 µM and the Kd (HLA-B*48:01; [21]) was no less than 20 µM. The Kd (HLA-B*57:01 [3]; [21]) was no less than 20 µM and the Kd (HLA-C*15:02; [22]) was 0.099 µM.
For DFGYATMAK, the Kd (HLA-A*01:01; [23]) was no less than 20 µM, the Kd (HLA-A*02:01 [4]) was no less than 20 µM and the Kd (HLA-A*03:01 [5]) was 1.6 µM. The Kd (HLA-A*11:01 [6]) was 0.836 µM, the Kd (HLA-A*26:01 [7]; [23]) was no less than 20 µM and the Kd (HLA-A*26:02; [23]) was no less than 20 µM. It also gave a Kd (HLA-A*31:01; [23]) of no less than 20 µM, a Kd (HLA-A*68:02 [8]) of no less than 20 µM and a Kd (HLA-B*07:02; [23]) of no less than 20 µM. The Kd (HLA-B*08:01 [9]; [23]) was no less than 20 µM, the Kd (HLA-B*08:02; [23]) was no less than 20 µM and the Kd (HLA-B*15:01 [1]; [23]) was no less than 20 µM. For the same sequence, the Kd (HLA-B*15:17) was no less than 20 µM, the Kd (HLA-B*18:01 [10]; [23]) was no less than 20 µM and the Kd (HLA-B*27:05; [23]) was no less than 20 µM. For the same sequence, the Kd (HLA-B*40:01) was no less than 20 µM, the Kd (HLA-B*46:01 [2]; [23]) was no less than 20 µM and the Kd (HLA-B*48:01; [23]) was no less than 20 µM. For the same sequence, the Kd (HLA-B*57:01 [3]; [23]) was no less than 20 µM and the Kd (HLA-B*58:01; [23]) was no less than 20 µM.
In the case of EAMDTISVF, the Kd (HLA-A*26:02; [22]) is reported as no more than 0.001 µM and the Kd (HLA-B*46:01 [11]; [22]) is reported as 0.53 µM.
Work on ETLETLLLL yielded a Kd (HLA-A*26:02; source organism: Dengue virus 2 Thailand/16681/84) of 0.055 µM.
FAFKLSFAI gave a Kd (HLA-C*03:03; [24]) of 0.004 µM, a Kd (HLA-C*05:01) of no less than 20 µM and a Kd (HLA-C*07:02; [24]) of no less than 20 µM. It also gave a Kd (HLA-C*12:03) of no more than 0.001 µM, a Kd (HLA-A*02:01 [12]; [24]) of 1.01 µM and a Kd (HLA-B*15:01 [13]; [24]) of no less than 20 µM. For the same sequence, the Kd (HLA-B*35:01) was 0.065 µM, the Kd (HLA-B*39:01; [24]) was 3 µM and the Kd (HLA-B*51:01; [24]) was no less than 20 µM.
Work on FIRWRFYLL yielded a Kd (HLA-B*08:01 [9]; source organism: Vibrio cholerae V52) of 0.216 µM and a Kd (HLA-C*07:02; source organism: Vibrio cholerae 2740-80) of 4.08 µM.
With HVIYFTAFT the Kd (HLA-A*02:01 [12]; [25]) was no less than 20 µM, the Kd (HLA-A*02:03) was no less than 20 µM and the Kd (HLA-A*02:12) was no less than 20 µM. It also gave a Kd (HLA-A*02:19) of no less than 20 µM, a Kd (HLA-A*03:01 [14]) of no less than 20 µM and a Kd (HLA-A*26:01 [15]) of no less than 20 µM. The Kd (HLA-A*29:02) was no less than 20 µM, the Kd (HLA-A*68:02 [16]) was 0.0577 µM and the Kd (HLA-B*15:01 [13]; [25]) was no less than 20 µM. It also gave a Kd (HLA-B*18:01 [17]) of no less than 20 µM, a Kd (HLA-B*27:03) of no less than 20 µM and a Kd (HLA-B*39:01; [25]) of no less than 20 µM. For the same sequence, the Kd (HLA-B*46:01 [11]; [25]) was no less than 20 µM, the Kd (HLA-B*51:01; [25]) was no less than 20 µM and the Kd (HLA-B*57:01 [18]) was no less than 20 µM.
Work on MMLSPLVAL yielded a Kd (HLA-C*07:02; source organism: Salmonella enterica subsp. enterica serovar Typhi str. CT18) of 0.858 µM, a Kd (HLA-A*02:01 [12]; [26]) of 0.0002 µM and a Kd (HLA-B*08:01 [19]) of 0.96 µM. For the same sequence, the Kd (HLA-B*39:01; [26]) was 0.0008 µM.
RTLASGLIY was tested, and the Kd (HLA-A*11:01 [20]; [24]) was 0.0673 µM.
SGIDTNAYY showed a Kd (HLA-A*26:01 [7]; source organism: West Nile virus) of no less than 20 µM and a Kd (HLA-A*26:02; source organism: West Nile virus strain PTRoxo) of no less than 20 µM.
TLYCVHQR was tested, and the Kd (HLA-A*11:01 [20]; source organism: Human immunodeficiency virus 1) was 0.111 µM.
WALDVPMYF gave a Kd (HLA-B*57:01 [3]; source organism: Brucella suis 1330) of 0.034 µM, a Kd (HLA-B*58:01; source organism: Aurantimonas manganoxydans) of 0.0036 µM and a Kd (HLA-C*03:03; [27]) of no more than 0.001 µM. The Kd (HLA-C*15:02; [27]) was 0.179 µM.
Sequence WWLEYTASF has a Kd (HLA-B*18:01 [10]; source organism: Burkholderia mallei ATCC 23344) of 0.068 µM, a Kd (HLA-C*14:02) of 0.077 µM and a Kd (HLA-C*15:02; source organism: Burkholderia mallei SAVP1) of no less than 20 µM.
